The assay has as its system HeLa cells. It counts as cell-based, Human.

These results are taken from patent publication US8313731B2 (priority 2002, dated 2012).

B1: Holo-neocarzinostatin (protein, UniProt P0A3R9 35-147, looked up)
Neocarzinostatin: AAPTATVTPSSGLSDGTVVKVAGAGLQAGTAYDVGQCAWVDTGVLACNPADFSSVTADANGSASTSLTVRRSFEGFLFDGTRWGTVDCTTAACQVGLSDAAGNGPEGVAISFN
modifications: enediyne chromophore bound
As for B1, the cell survival is reported as no less than 90%. Further, for the setting “37° C.”, the “incubation time within which full cytotoxic effect develops” value is given as no more than 6 min. In addition, the IC50 (read-out: concentration of drug that kills 50% of the cell population) was 0.71 ± 0.05 nM.
